Reference: the nanobody polyreactivity screen of Harvey et al. (2022)

assay: yeast display, Sf9 membrane polyspecificity reagent, FACS + sequencing; frameworks hold sequencing errors
In short: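 A synthetic nanobody library was expressed on Saccharomyces cerevisiae BJ5465 by galactose induction for 36–48 hours. The library was stained for 1 hour at 4 °C with 10% biotinylated, detergent-solubilized Sf9 membrane reagent and enriched with streptavidin microbeads before FACS. Low and high (top ~1%) gates were set on anti-HA fluorescence for expression and streptavidin fluorescence for reagent binding, and each polyreactivity label reflects the gate of origin.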

Question: For “QVQLVESGGGLVQAGGSLRLSCAASGNIFYQYAMGWYRQAPGKEREFVAAISISGTSTYADSVKGRFTISRDNAKNTVDLQLNSLKPEDTEVYWGQGTQVTVSS”, which “polyreactivity (PSR sort gate)” value is on record?
Answer: low polyreactivity

Question: For “QVQLVESGGGLVQAGGSLRLSCAASGRIFGRNAMGWYRQAPGKERELVASITWTGGSTYYADSVKGRFTISRDNAKNTVYLQMNSLKPEDTAVYYCAAETWYGSSWWDAGEYYYWGQGTQVTVSS”, which “polyreactivity (PSR sort gate)” value is on record?
Answer: high polyreactivity

Question: For “QVQLVESGGGLVQAGGSLRLSCAASGYIFLANAMGWYRQAPGKERELVARIDTRGDSTYYADSVKGRFTISRDTAKNTVYLQMNSLKPEDTAVYYCAADQQTWWQYSLINEYDYWGQGTQLTVSS”, which “polyreactivity (PSR sort gate)” value is on record?
Answer: low polyreactivity

Question: Which “polyreactivity (PSR sort gate)” value does the source give for “QVQHVESGGGLVQAGGSLRLSCAASGRIFYSNVMGWYRQAPGKERELVAAISGRTGGTYYADSEKGRFTISRDNAKNTVYLQMNSMKPEDTAVYFCAARVIYYYGSGPYDYWGQGTQVTVSS” here?
Answer: low polyreactivity

Question: With “QVQLVESGGGLVQAGGSLRLSCAASGLISRRNAMGWYRQAPGKERELVAAISTGSSTNYADSVKGRFTLSRDNAKNTVYLQMNSLKPEDSAVYYCAATQYWWSTLGIRDDYWGQGTQVTVSS” as the sequence, how does the “polyreactivity (PSR sort gate)” value read?
Answer: low polyreactivity

Question: For “QVQLVESGGGLVQARGSLRLSCAASGFNISNYAMGWYREAPGKESELVAAIRRSGGSTYYADSVKGRFTISRDNAKNTVYLQMNSRKPEDTAVYYCAAYPKRGSRYDYWGLGTQVTVSS”, which “polyreactivity (PSR sort gate)” value is on record?
Answer: high polyreactivity

Question: Which “polyreactivity (PSR sort gate)” value does the source give for “QGQLVESGGGLVQAGGSLRLSCAASGSIFVYNVMGWYRQEPGKATELVADISKTAGRTYSADSVKGRFTISRDNAKNTVYLQINSLKPEDTAVSYCAVGNKRDAYYQYSSYGYWGQGTQVTVSS” here?
Answer: low polyreactivity

Question: Which “polyreactivity (PSR sort gate)” value does the source give for “QVQLVESGGGLVQAGGSLRLSCAASGSTTYYAMGWYRQAPGKERELVAAISYSGGSTFYADSVKGRFRISRDNAKNTVYLQMNSLKPEDTAVYYCAADLGFPFDYWGQGTKVTVSS” here?
Answer: low polyreactivity

Question: For “QVQLVESGGGLVQAGGSLRLSCAASGRILKYNAMGWYRQAPGKERELVAAISYRGGSTYYADSVKGRFTISRDNAKNTVYLQMNSLKPEDTAVYYCNAGGGILNGPLFDYWGQGTQVTVSS”, which “polyreactivity (PSR sort gate)” value is on record?
Answer: low polyreactivity

Question: Which “polyreactivity (PSR sort gate)” value does the source give for “QVQLVESGGGLVQAGGSLRLSCAASGITFYLYAMGWYRQAPGKERELVAAISSSGGSTYYADSVKGRFTISRDNAKNTVYLQMNSLKPEDTAVYYCNARRRTVPYRYYYWGQGTQVTVSS” here?
Answer: high polyreactivity

Question: Which “polyreactivity (PSR sort gate)” value does the source give for “QVQLVESGGGLVQAGGSLRLSCAASGRTFPGKAMGWYRQAPGKERELVAAISKSSSRTYYADSVKGRFTISRDNAKNTVYLQMNSLKAEDTAVYYCAASSFNNGHRYDYWGQGTQVTVSS” here?
Answer: high polyreactivity

Question: For “QVQLVESGGGLVQAGGSLRLSCAASGRILFWYAMGWYRQAPGKERELVAAISSSGGSTYYADSVKGRFTISRDNAKNTFYLLMNSLKPEDTAVYYCAADGVVDYGYWFVVEYEYWGQGTQVTVSS”, which “polyreactivity (PSR sort gate)” value is on record?
Answer: high polyreactivity

Question: Which “polyreactivity (PSR sort gate)” value does the source give for “QVQLVESGGGLVQEGGSIRLSCAASGSTFFLYAMGWYRQAPGKERELVAAITYTDGDTYYADSVKGRFTISRDNAKNTVYLQMNSLKPEDNAVYYCNAGGDEPVYGSGYDYWGQGTQVTVSS” here?
Answer: low polyreactivity

Question: Which “polyreactivity (PSR sort gate)” value does the source give for “QVQLVESGGGLVQAGGSLRLSCAASGRIFTYNAMGWSRQAPGKERELVAAISSSGGSTYYADSVKGRFTISRDIAKYTVYLHMNSLKPEDTAVYYCAADDAGFWYYFYGRYVTFDYWGQGTQVTVSS” here?
Answer: low polyreactivity

Question: With “QVQLVESGGGLVQAGGSLRLSCAASGSIFDWYAMGWYRQAPGKEGELVAAISSGDSTYYADSVKGRFTISRDNAMNTVYLQMNSLKPEDTAVYYCAAVTKLSGIRYNYWGQGTQVTVSS” as the sequence, how does the “polyreactivity (PSR sort gate)” value read?
Answer: low polyreactivity

Question: Which “polyreactivity (PSR sort gate)” value does the source give for “QVQLVESGGGLVQAGGSLRLSCAASGSTFPYNTMGWYRQAPGKEREFVAAITGDGGTTYYADSVKGRFTISRDNAKNTVYLQMYSLKPEDTAVYYSAVPYPAEGYGGDYWGQGTQVTVSS” here?
Answer: low polyreactivity

Question: With “QVQLVESGGGLVQAGGSLRLSCAASGFIFYRYAMGWYRQAPGKERELVAAISSSGGSTYYADSVKGRFTISRDNAKNTVYLQMNSLKPEDTAVYYCNKRPQQYSPGYDYWGQGTQVTVSS” as the sequence, how does the “polyreactivity (PSR sort gate)” value read?
Answer: high polyreactivity

Question: Which “polyreactivity (PSR sort gate)” value does the source give for “QVQLVESGGGLVQAGGSLRLSCAASGSIFASYDMGWYRQAPGKERELVARITFNGGSTYYADSVKGRFTISRDNAKNTVYLQMNSLKPEETAVYYCNADYPWEYDYWGLGTQVTVSS” here?
Answer: low polyreactivity

Question: Which “polyreactivity (PSR sort gate)” value does the source give for “QVQLVESGGGLVQAGGSLRLSCAASGFTFYGYTMGWYRQAPGKERELVAAINKSGSSTYYADSEKGRFTISRDNAKNTVYLQMNSLKPEDTAVYYCNAYYRKVLGYDKMDYWGQGTQVTVSS” here?
Answer: high polyreactivity

Question: For “QVQLVESGGGLVQAGGSLRLSCDASGSIFDRYVMGWYRQAPGKERELVAAITTSGDGTYYADSVKGRFTISRDNAKNSVYLQMNSLKREDTAVYYCAAVRRSWKYSTSDYWGQGTQVTVSS”, which “polyreactivity (PSR sort gate)” value is on record?
Answer: low polyreactivity

Question: With “QVQLVESGGGLVQAGGILRLSCAAYGRTSSYTMGWDIQANGQERELVAAITRRGGSTYYADSVKGRFTISRDHAKNSVYLQMNSLKPEDTAVYYCAASYRGEYDYWGQGTQVTVSS” as the sequence, how does the “polyreactivity (PSR sort gate)” value read?
Answer: high polyreactivity

Question: Which “polyreactivity (PSR sort gate)” value does the source give for “QVQLVESGGGLVQAGGSLRFSCAASGIIFRIYAMGWYRQAPGKEREFVAAISGSGDSTYYADSVKGRFTISRDNAKNTVNLQMNSLKPEDSAVYYCAADWTLVYYHEDYWGQGSQVTVSS” here?
Answer: low polyreactivity

Question: Which “polyreactivity (PSR sort gate)” value does the source give for “QVQLVESGGGLVQAGGSLRLSCAASGSLSSRNAMGAYRQAPGKERELVAAITRGSSTNYADSVKGRFTISRDNAKNTVYLQMNSLKPEDTAVYYCARRYDPVYKGMGYWGQGTQVTVSS” here?
Answer: low polyreactivity

Question: Which “polyreactivity (PSR sort gate)” value does the source give for “QVQLVESGGGLVQAGGSLRLSCAASGFTFSAYTMGWYRQAPGKERELVADISSRGGSTYYADSVKGRFTISRDNAKNTVYLQMNSLKPEDTAVYYCAAVWYWTQDYDYWGQGTQVTVSS” here?
Answer: low polyreactivity

Question: For “QVQLVESGGGLVQAGGSLRLSCAASGITFAGYARGWYRQAPGKERELVAAISGSGGSTYYADSVKGRFTISRDNAKNTVYLQMNSLKPEDTAVYYCNADVVPQYYSWGQGTQVTVSS”, which “polyreactivity (PSR sort gate)” value is on record?
Answer: low polyreactivity

Question: With “QVQLVESGGGLVQAGGSLRLSCAATGLTVRYYTMGWYRQAPGKERELVASITIRGGSTYYADSVKGRFTISRDNAKNTVYLQMNSLKAEDTAVYYCNTRYGYSFGYWGQGTQVTVSS” as the sequence, how does the “polyreactivity (PSR sort gate)” value read?
Answer: high polyreactivity

Question: For “QVQLVESGGGLVQAGGSLRLSCAATGSIVYSNTMGWYRQSPGKERELVAAISTSDTSTYYADSVKGRFTISRDNGKNTVYLQMNSLKPQDTAVYYCNAVCSIVLYGYWGQGTQVTVSS”, which “polyreactivity (PSR sort gate)” value is on record?
Answer: low polyreactivity

Question: For “QVQLVESGGGLVQAGGSLRLSCAASGRTFLGYAMGWYRQAPGKERELVAAISSSGGRTYYADSVKGRFTISRDNAKNTVYLQMNSLKPEDTAVYYCNAPRIVLCGYEYWGQGTQVTVSS”, which “polyreactivity (PSR sort gate)” value is on record?
Answer: high polyreactivity

Question: For “QVQLVESGGGLVQAGGSLRLSCAASGSTFYGYAMGWYRQAPGKERELVAAINWSGGRTYYADSVKGRFTISRDNAKNTVYLQMNSLKPEDTAVYYCAARGRYQPQFDYWGQGTQVTVSS”, which “polyreactivity (PSR sort gate)” value is on record?
Answer: high polyreactivity

Question: For “QVQLVESGGGLVQAGGSLRLSCAASGSIFYRNVMGWYRQAPGKERELVAAISQRGGSTYYADSVKGRFTISRDNAKNTVYLQMNSLKPEDTAVYYCNAASRGAGTSIWSWYDHWGQGTQVTVSS”, which “polyreactivity (PSR sort gate)” value is on record?
Answer: low polyreactivity

Question: For “QVQLVESGGGLVQAGGSLRLSCAASGLIFYKYAMGWYRQAPGKERELVASISTGGGSTYYADSVKGRFTISRDNAKNTVYLQMNSLKPEDTAVYYCAARWWRRFRGSHSLYDYWGQGTQVTVSS”, which “polyreactivity (PSR sort gate)” value is on record?
Answer: high polyreactivity

Question: Which “polyreactivity (PSR sort gate)” value does the source give for “QVQLVESGGGLVQAGGSLRLSCAASGSIFYPYTMGWYRQAPGKERELVAAISGGCRTYYADSVKGRFTISRDNAKNTVYLQMNSLKPEDTAVYYCAARYGYRWLVGKYEYWGQGTQVTVSS” here?
Answer: high polyreactivity

Question: Which “polyreactivity (PSR sort gate)” value does the source give for “QVQLVESGGGLLQAGGSLRLSCAASGRIFIANAMGWNRQAPRKERDLVAAITSDGGTNYADSVKGRFTISRDNAKITVYLQLISLKPEDTAVYYCAATYQIGYYYVWEYDYWGQGTQLTVSS” here?
Answer: low polyreactivity

Question: Which “polyreactivity (PSR sort gate)” value does the source give for “QVQLVESGGGLVKAGGSLRLSCAASGFSFFGYAMGWYRQAPGKERELVAAIDNGGSTNYADSVKGRFTISRDNAKNTVYLQMNSLKPEDTAVYYCNTDVDYAILDYWGQGTQVTVSS” here?
Answer: low polyreactivity

Question: For “QVQLVESGGGLVQAGGSLRLSCAASGLIFWEYAMGWYRPAPGNERELVASITWGGGGTYYADSVKGRFTISRYNAKNTVNLHKNSLKPEDTAVYYSAVGPYYQSTQIYDYWGQGTQVTVSS”, which “polyreactivity (PSR sort gate)” value is on record?
Answer: low polyreactivity

Question: With “QVQLVESGGGLVQAGGSLRLSCAASGFIFFRYDMGWYRQAPGKERELVAVITSSGSTNYADSVKGRFTISRDNAKNTVYLQMNSLKPEDTAVYYCNARVSGVYRRRVNYWGEGTQVTVSS” as the sequence, how does the “polyreactivity (PSR sort gate)” value read?
Answer: high polyreactivity

Question: Which “polyreactivity (PSR sort gate)” value does the source give for “QVQLVESGGGLVQAGGSLRLSCAASGSTFSYYAMGWYRQAPGKERELVAAIRKSGGSTYYADSVKGRFTISRDNAKNTVYLQMNSLKPEDTAVYSCAAVFSYYGWYSRYDYWGQGTQVTVSS” here?
Answer: low polyreactivity

Question: For “QVQLVESWGGLVQAGGSLRLSCAASGRIFKLYAMGWYRQAPGKERELVAGINWSGGTTYYAESVKGRFTISRDNAKNTVYLQMNSLKPEDTAVYYCAARTRNGAGYYWGQGTQVTVSS”, which “polyreactivity (PSR sort gate)” value is on record?
Answer: high polyreactivity

Question: Which “polyreactivity (PSR sort gate)” value does the source give for “QGQLVESGGGLVQAGGSLRITCAASGITFPYNAMGWYRQAPGTERELVAAITRSGASTYYADSVKGRFTISRDNSKNTVYVQMNSLKPEDTAVYYCAAKVIGRPRPYYYWGQGTQVTVSS” here?
Answer: high polyreactivity

Question: For “QVQLVESGGGLVQAGGSLRLSCAASGLTLYKNGMGWYRQAPGKERELVAVISRSGGRTYYADSVKGRFTISRDNAKNTVYLQMNSLKPEDTAVYYCAARQYGPRYTYYYWGQGTQVTVSS”, which “polyreactivity (PSR sort gate)” value is on record?
Answer: high polyreactivity

Question: With “QVQLVESGGGLVQAGGSLRLSCAASGYTFPMYAMGWYRQAPGKERELVADINIGGASTYYADSVKGRFTISRDNAKNTVYLQMNSLKPEDSAVYYCAKEYYDGYFPTFDYDYWGQGTQVTVSS” as the sequence, how does the “polyreactivity (PSR sort gate)” value read?
Answer: low polyreactivity
